The values that follow come from article PMC4476739.

Assay [1] concerns the target DS-Cav1, 505-… (design without foldon) (respiratory syncytial virus) (UniProt P03420). The experiment in a line: ELISA; D25 ELISA on 293T transient expression culture supernatants, 96-well microtiter plate format.
Assay [2] addresses DS-Cav1 1-C, foldon removed (respiratory syncytial virus) (UniProt P03420). The experiment in a line: BLI; fortéBio Octet Red384; RSV F variant captured on motavizumab IgG loaded on anti-human Fc probes; Fab in solution 0.007 to 0.5 μM; 30°C; PBS + 1% BSA; 1:1 fit.
The target in assay [3] is RSV F DS-Cav1 with C-terminal T4 fibritin foldon (respiratory syncytial virus | bacteriophage T4) (UniProt P03420). The experiment in a line: SEC; S200 size-exclusion chromatography of purified RSV F variants, before or after removal of the foldon with thrombin; PBS. (In general: SEC sorts molecules by how far they enter the pores of the column.)
Assay [4] concerns the target RSV F DS-Cav1 with a thrombin cleavage site between RSV F and the foldon, before cleavage (respiratory syncytial virus | bacteriophage T4) (UniProt P03420). The assay is described as above.

Bounds are passed on as bounds.

Regarding D25 antibody as used in the ELISA, the D25 ELISA binding titer (OD) in assay [1] is > 2 OD.

By Kd is commonly meant the equilibrium constant for the complex coming apart. On to D25 antigen binding fragment (Fab), for which, in assay [2], the Kd is 0.32 nM. As a reminder, the stoichiometry N is the number of molecules, sites or subunits per partner or assembly. The substance “RSV F DS-Cav1 with C-terminal T4 fibritin foldon (from UniProt P03420 26-109; P03420 137-511) (domain or fragment)” returned a stoichiometry N in assay [3] of 3. “RSV F DS-Cav1 with a thrombin cleavage site between RSV F and the foldon, before cleavage (from UniProt P03420 26-109; P03420 137-511) (domain or fragment)” registered a stoichiometry N in assay [4] of 3.
